Experimental findings from PMC9718832, “An NKX-COUP-TFII morphogenetic code directs mucosal endothelial addressin expression” (Nature Communications, 2022) are described below.

The target of one data set is NKX2-5;COUP-TFII (mouse;mouse, UniProt P42582;P43135 1-318;1-414, |). The data set can be described thus: EMSA; COUP-TFII tag not stated; EMSA: 20 mM Tris pH 8.0, 10 mM KCl, 1 mM DTT, 20% glycerol, 12.5 ng poly dI/C, 6.25 pmol random ss oligo, BSA, 1-2 pmol probe, 4 C. Conditions: protein: recombinant;recombinant, tags: His, T7 (pET21A);His, copies: 1;1, blunt.
Chain of NKX2-5;COUP-TFII (P42582 whole entry, one chain of several): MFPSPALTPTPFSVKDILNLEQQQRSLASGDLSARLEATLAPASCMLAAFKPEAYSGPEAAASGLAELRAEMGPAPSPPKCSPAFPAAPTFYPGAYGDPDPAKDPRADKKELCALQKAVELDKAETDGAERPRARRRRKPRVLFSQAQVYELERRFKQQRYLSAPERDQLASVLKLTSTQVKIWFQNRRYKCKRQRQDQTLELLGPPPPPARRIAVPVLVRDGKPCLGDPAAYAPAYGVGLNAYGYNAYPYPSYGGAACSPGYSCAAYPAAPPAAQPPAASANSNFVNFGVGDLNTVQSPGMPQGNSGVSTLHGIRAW
The target in data set [1] is T1, NKX2-3;COUP-TFII (mouse;mouse, UniProt P97334;P43135 1-362;1-414, |). The data set can be described thus: EMSA; EMSA: 20 mM Tris pH 8.0, 10 mM KCl, 1 mM DTT, 20% glycerol, 12.5 ng poly dI/C, 6.25 pmol random ss oligo, BSA, 1-2 pmol probe, 4 C. The following applies: protein: recombinant;recombinant; tags: His, T7 (pET21A);His, T7 (pET21A); copies: 1;1; blunt.
The target in data set [2] is T2, NKX2-3 (mouse, UniProt P97334 1-362). The experiment in a line: EMSA; supershift; HEY1 dose-dependently inhibits (Fig S1B); EMSA: 20 mM Tris pH 8.0, 10 mM KCl, 1 mM DTT, 20% glycerol, 12.5 ng poly dI/C, 6.25 pmol random ss oligo, BSA, 1-2 pmol probe, 4 C. The following applies: protein: recombinant; tags: His, T7 (pET21A); blunt. In general terms: Mobility shift assays separate free from complexed probe on a gel.

Data set [3] has as its target T3, HEY1 (mouse, UniProt Q9WV93 1-299).
T3 sequence: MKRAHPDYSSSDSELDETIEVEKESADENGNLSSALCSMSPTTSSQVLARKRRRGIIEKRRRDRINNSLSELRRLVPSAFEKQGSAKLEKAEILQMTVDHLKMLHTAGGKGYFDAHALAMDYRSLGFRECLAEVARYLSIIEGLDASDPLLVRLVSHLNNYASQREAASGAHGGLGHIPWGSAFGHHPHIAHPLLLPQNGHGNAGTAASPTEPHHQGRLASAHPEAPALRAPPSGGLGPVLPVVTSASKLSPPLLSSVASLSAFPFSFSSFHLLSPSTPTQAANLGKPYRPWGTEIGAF
The data set can be described thus: EMSA; supershift with anti-HEY1 (HRT1); EMSA: 20 mM Tris pH 8.0, 10 mM KCl, 1 mM DTT, 20% glycerol, 12.5 ng poly dI/C, 6.25 pmol random ss oligo, BSA, 1-2 pmol probe, 4 C. The following applies: protein: recombinant; tags: His, T7 (pET21A); chain copies: 2; blunt.

Data set [4] concerns the target T4, COUP-TFII (mouse, UniProt P43135 1-414).
T4 sequence: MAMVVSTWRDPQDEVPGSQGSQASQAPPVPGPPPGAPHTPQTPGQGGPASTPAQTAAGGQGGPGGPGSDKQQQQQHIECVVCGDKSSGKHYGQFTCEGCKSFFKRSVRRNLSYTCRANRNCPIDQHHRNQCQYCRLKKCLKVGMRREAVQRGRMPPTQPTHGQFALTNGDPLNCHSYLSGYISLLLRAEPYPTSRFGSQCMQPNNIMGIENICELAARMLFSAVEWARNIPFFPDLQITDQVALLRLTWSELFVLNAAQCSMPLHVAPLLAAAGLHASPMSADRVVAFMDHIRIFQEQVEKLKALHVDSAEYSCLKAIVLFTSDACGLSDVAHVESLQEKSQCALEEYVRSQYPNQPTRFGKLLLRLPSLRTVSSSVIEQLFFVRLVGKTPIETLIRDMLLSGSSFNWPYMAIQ
The experiment in a line: EMSA; supershift; EMSA: 20 mM Tris pH 8.0, 10 mM KCl, 1 mM DTT, 20% glycerol, 12.5 ng poly dI/C, 6.25 pmol random ss oligo, BSA, 1-2 pmol probe, 4 C. Conditions: protein: recombinant; tags: His, T7 (pET21A); chain copies: 2; blunt.

In data set [5] the target is T3, HEY1. The data set can be described thus: EMSA; EMSA: 20 mM Tris pH 8.0, 10 mM KCl, 1 mM DTT, 20% glycerol, 12.5 ng poly dI/C, 6.25 pmol random ss oligo, BSA, 1-2 pmol probe, 4 C. The following applies: protein: recombinant; tags: His, T7 (pET21A); chain copies: 2; blunt.
The target in data set [6] is T2, NKX2-3. The data set is described as above. Conditions: protein: recombinant; tags: His, T7 (pET21A); blunt.
In another data set the target is T5, GST-tagged COUP-TFII (mouse, UniProt P43135 1-414).
T5 construct: COUP transcription factor 2 (COUP-TFII, Nr2f2); Nr2f2 cDNA cloned into pGEX2TK; also called COUP-TFII-GST; source: E. coli BL21, purified
T5 sequence (looked up): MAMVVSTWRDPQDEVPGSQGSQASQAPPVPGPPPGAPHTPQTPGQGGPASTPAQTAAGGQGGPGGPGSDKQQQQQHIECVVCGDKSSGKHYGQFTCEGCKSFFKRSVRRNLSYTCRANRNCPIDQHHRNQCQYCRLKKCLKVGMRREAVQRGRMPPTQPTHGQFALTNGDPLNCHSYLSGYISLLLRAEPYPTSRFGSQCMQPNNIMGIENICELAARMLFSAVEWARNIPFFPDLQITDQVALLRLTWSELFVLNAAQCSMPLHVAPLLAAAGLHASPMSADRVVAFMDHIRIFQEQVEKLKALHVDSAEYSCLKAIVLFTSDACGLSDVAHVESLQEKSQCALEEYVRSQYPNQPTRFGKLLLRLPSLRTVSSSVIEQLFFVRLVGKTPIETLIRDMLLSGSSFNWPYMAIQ
The data set can be described thus: native gel or EMSA; NKX2-3 and COUP-TFII-GST co-incubated with labelled St6gal1 NCCE probe; complex seen on DNA. The following applies: both partners purified.

Data set [7] has as its target T6, COUP-TFII (recombinant, His- and T7-tagged) (mouse, UniProt P43135 1-414).
T6 construct: COUP transcription factor 2 (COUP-TFII, Nr2f2), mouse; cDNA PCR-amplified from mouse cDNA as BamHI-EcoRI fragment and cloned into pET21-A; also called Nr2f2; NR2F2; source: E. coli BL21, purified
T6 sequence (looked up): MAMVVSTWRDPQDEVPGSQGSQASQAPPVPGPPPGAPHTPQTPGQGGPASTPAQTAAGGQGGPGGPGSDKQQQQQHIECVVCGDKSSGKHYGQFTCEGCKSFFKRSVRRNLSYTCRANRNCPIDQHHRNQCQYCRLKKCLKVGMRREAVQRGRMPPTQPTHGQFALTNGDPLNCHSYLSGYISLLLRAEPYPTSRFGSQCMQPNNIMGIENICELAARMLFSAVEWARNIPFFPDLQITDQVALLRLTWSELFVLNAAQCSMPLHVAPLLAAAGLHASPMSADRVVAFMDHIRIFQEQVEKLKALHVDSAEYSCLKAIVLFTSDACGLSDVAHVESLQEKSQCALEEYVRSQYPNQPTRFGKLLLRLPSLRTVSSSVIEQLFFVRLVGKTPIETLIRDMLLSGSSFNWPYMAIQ
The experiment in a line: native gel or EMSA; recombinant proteins co-incubated with labelled Madcam1 CE probes (native CE, CE_ΔC_A, CE_ΔN_ΔC_A); 4 °C, 20% glycerol, 20 mM Tris pH 8.0, 10 mM KCl, 1 mM DTT, poly dI/C, BSA; 6% gel; supershift with anti-NKX2-3; complex seen on DNA. Conditions: both partners purified.

The target in data set [8] is T4, COUP-TFII. The experiment in a line: EMSA; EMSA: 20 mM Tris pH 8.0, 10 mM KCl, 1 mM DTT, 20% glycerol, 12.5 ng poly dI/C, 6.25 pmol random ss oligo, BSA, 1-2 pmol probe, 4 C. The following applies: protein: recombinant; tags: His, T7 (pET21A); chain copies: 2; blunt.
Data set [9] has as its target T1, NKX2-3;COUP-TFII. The experiment in a line: EMSA; supershift with anti-NKX2-3; EMSA: 20 mM Tris pH 8.0, 10 mM KCl, 1 mM DTT, 20% glycerol, 12.5 ng poly dI/C, 6.25 pmol random ss oligo, BSA, 1-2 pmol probe, 4 C. The following applies: protein: recombinant;recombinant, tags: His, T7 (pET21A);His, copies: 1;1, blunt.
Data set [10] addresses T1, NKX2-3;COUP-TFII. The data set can be described thus: EMSA; band stronger than on WT CE; supershift with anti-NKX2-3; EMSA: 20 mM Tris pH 8.0, 10 mM KCl, 1 mM DTT, 20% glycerol, 12.5 ng poly dI/C, 6.25 pmol random ss oligo, BSA, 1-2 pmol probe, 4 C. The following applies: protein: recombinant;recombinant, tags: His, T7 (pET21A);His, copies: 1;1, blunt.
The target of another data set is T7, COUP-TFII-GST (mouse, UniProt P43135 1-414).
T7 sequence: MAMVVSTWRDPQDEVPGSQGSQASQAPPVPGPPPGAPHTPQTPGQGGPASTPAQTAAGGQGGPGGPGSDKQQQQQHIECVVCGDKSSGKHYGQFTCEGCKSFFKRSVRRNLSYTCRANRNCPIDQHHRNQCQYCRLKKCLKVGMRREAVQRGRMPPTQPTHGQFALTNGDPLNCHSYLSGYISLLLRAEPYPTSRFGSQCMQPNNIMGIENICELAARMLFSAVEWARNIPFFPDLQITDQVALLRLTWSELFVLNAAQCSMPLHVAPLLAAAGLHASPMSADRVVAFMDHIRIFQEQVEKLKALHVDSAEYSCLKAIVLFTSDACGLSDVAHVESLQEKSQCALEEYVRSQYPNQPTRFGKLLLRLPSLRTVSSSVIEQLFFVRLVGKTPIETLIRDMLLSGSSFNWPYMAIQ
The experiment in a line: EMSA; inhibited by cold WT probe; EMSA: 20 mM Tris pH 8.0, 10 mM KCl, 1 mM DTT, 20% glycerol, 12.5 ng poly dI/C, 6.25 pmol random ss oligo, BSA, 1-2 pmol probe, 4 C. The following applies: protein: recombinant; tags: GST (pGEX2TK); chain copies: 2; label: labeled; blunt.

In data set [11] the target is T2, NKX2-3. Described as above. The following applies: protein: recombinant; tags: His, T7 (pET21A); label: labeled; blunt.
For a further data set, the target named is NKX2-3;COUP-TFII-GST (mouse;mouse, UniProt P97334;P43135 1-362;1-414, |). The data set can be described thus: EMSA; EMSA: 20 mM Tris pH 8.0, 10 mM KCl, 1 mM DTT, 20% glycerol, 12.5 ng poly dI/C, 6.25 pmol random ss oligo, BSA, 1-2 pmol probe, 4 C. Conditions: protein: recombinant;recombinant; tags: His, T7 (pET21A);GST (pGEX2TK); copies: 1;1; label: labeled; blunt.

B1: Tbx5 NCCE (dsDNA)
DNA 1: CCGCTGACCCGACCCTTAATAAGGCA
DNA 2: TGCCTTATTAAGGGTCGGGTCAGCGG
With B1, in the data set with NKX2-5;COUP-TFII, the binding result was “binds”.

B2: Madcam1 CE WT (dsDNA)
DNA 1: CCATGCACTTGACCCACCATGGTGACCCACCTCC
DNA 2: GGAGGTGGGTCACCATGGTGGGTCAAGTGCATGG
B2: the binding result with NKX2-3;COUP-TFII [1], with NKX2-3 [2], with HEY1 [3] and in the data set with COUP-TFII [4] was “binds” throughout.

B3: Madcam1 CE_deltaE/N (m1) (dsDNA)
DNA 1: CCATGGTCTTGACCCACCATGGTGACCCACCTCC
DNA 2: GGAGGTGGGTCACCATGGTGGGTCAAGACCATGG
As to B3, the binding result with HEY1 [5] and with NKX2-3 [6] was “no binding” throughout.

B4: NKX2-3 (recombinant, His- and T7-tagged) (natural protein, mouse, UniProt P97334 1-362, looked up)
chain: MMLPSPVTSTPFSVKDILNLEQQRHFHGAHLQAELEQHFHSAPCMLATAEGTQFSDAGEEDEEEEGEKLSYLNSLAAAEGHGDSGLCPQSYVHTVLRDACSGPKEQEEEVVSERSQKSCQLKKSLEAAGDCKTSEDGERPKPRSRRKPRVLFSQAQVFELERRFKQQRYLSAPEREHLASSLKLTSTQVKIWFQNRRYKCKRQRQDKSLELGTHAPPPPPRRVAVPVLVRDGKPCVTPSAQTYGSPYGVGAGAYSYNSFPAYGYGNSAAAAAAAAAAAAAAAAYSGSYGCAYPTGGGGGGGGTASAATTAMQPACSATGGGSFVNVSNLGGFGSGGGAQPLHQGAAAGSACTQGTLQGIRAW
notes: Homeobox protein NKX2-3, mouse; cDNA PCR-amplified from mouse cDNA as EcoRI-HindIII fragment and cloned into pET21-A; also called intestinal homeodomain protein NKX2-3; source: E. coli BL21, purified
In the case of B4, the binding result (in the data set with GST-tagged COUP-TFII; in data set [7]) was “binds” in each case.

B5: Madcam1 CE_deltaN_deltaC_A (dsDNA)
DNA 1: CCATGGTCTTGAAAAAAAATGGTGACCCACCTCC
DNA 2: GGAGGTGGGTCACCATTTTTTTTCAAGACCATGG
Take B5: the binding result with NKX2-3 [6] was “no binding”; with COUP-TFII [8], “binds”; with NKX2-3;COUP-TFII [9], “binds”.

B6: Madcam1 CE_deltaC_A (dsDNA)
DNA 1: CCATGCACTTGAAAAAAAATGGTGACCCACCTCC
DNA 2: GGAGGTGGGTCACCATTTTTTTTCAAGTGCATGG
For B6, the binding result in the data set with NKX2-3;COUP-TFII [10] was “binds”.

B7: Etv2 NCCE (dsDNA)
DNA 1: CCTGCAACTTGACCCAGGCTGCGACCCCCAGC
DNA 2: GCTGGGGGTCGCAGCCTGGGTCAAGTTGCAGG
With B7, in the data set with NKX2-5;COUP-TFII, the binding result is on record as “binds”.

B8: St6gal1 CE WT (dsDNA)
DNA 1: GAGGCTGGTCAGAGAAGTGTGAAAAG
DNA 2: CTTTTCACACTTCTCTGACCAGCCTC
In the case of B8, the binding result in the data set with COUP-TFII-GST, in the data set with NKX2-3 [11] and with NKX2-3;COUP-TFII-GST was “binds” throughout.
